# Data from publication PMC7411048, “ATP-dependent hydroxylation of an unactivated primary carbon with water” (Nature Communications, 2020).
# B1: S26DH1 (desmost-1,4-dien-3-one (DDO) hydroxylase; DH5) (Sterolibacterium denitrificans) (protein)
# chain: PLQHFKGTTASGRFDLGPRTTPKLGNWQDLYRQRWTWDKVAKGSHGWANCRSACEWDLYVKDGVVVREEQSATYEASEPGIPDFNPRGCQKGACYTEVMYGPSRTTVPLKRVGPRGSGKWEKISWEQALREIAVKTVDAAEKWGTDTIYQDLGPNFDFGASTAGRFKFQFMAGGIFADNWAEIGDLNVGASITVGAAHLGGSADEWFLSDFIVVWMMNPSVTQIPDAHFLYEARYNGTELCVIDPQYSATAIHADQWLPLESGTDAALGLAVARYLLDTGAIDLPYIREQTDLPLLARLDTGRFLRESDLKAGGDEDQLYMWHPQKNAAVPAPGCLKNTTRSLKLDFEPPIDGQWKIKLANGEEVVVVPVGAMLKEHLDPWTFEHAAQVTHLHIDQIRKFAEGWAKAERPMVLSSWGSNRYVHSDLMNRTKMLLLMLKGALGKKGAGYQATGWVDLDGFGNAMQMEKSGMTGRLAVMLNAMPPKELFNAIVDIIKKRKTENDVALEGENNYLRNKLCTSDVVEVNLKSEGYRAALSKEQEGLYPRELSDYYDEAHEKGWAPGLPRKNTPKIFFSGGSNLLRRNNLPQYLKAHIWDQMDCIVDVNPKYSYTGTQADYILPAAGWYEKTGIKYTMSYIPYLHYCDAAVPPLAESKGEWEIYWLLTREMENYAKEKNQPILDGCGRGTIDMKTIHQRYTNQGDLGQHDQDKVTEEILRSESTKGMTVEGLRQTGIAKYTATGKNVQATALNNPDWKGEGVLTTLTRFTVHKEPWPTYSGRISSFIDHPWFIEGHEQFATHKDSPKAGGDYPFIFVSCHARWSIHSTWRDTPMMLRLQRGEPLVYLNPTDAAKIGVKDFEYVEIYNNYGSIRMRLKVTAMVRPGVAYYYHAWEPHQFPNHESYKNLIPGIVQPLHYAGGYGHINHALNRFQPGSAVQDTRIGIKPWTGQATGVKPVVVTAEEAAIAERANQAI
# notes: alpha-beta-gamma complex, Mo-cofactor/FeS/heme b; produced in Thauera aromatica K172 with delta-chaperone (SdhD, delta4); enriched by three columns; with Steroid C26 dehydrogenase 1 beta subunit (FeS electron transfer subunit); Steroid C26 dehydrogenase 1 gamma subunit (heme b subunit)
# Key:
# [1] = substrate: C/C(=C\CC[C@@H](C)[C@H]1CC[C@H]2[C@@H]3CCC4=CC(=O)C=C[C@]4(C)[C@H]3CC[C@]12C)CO; experiment: UPLC assay of 26-OH-DDO dehydrogenation to DDO-26-al; type: biochemical, Sterolibacterium denitrificans; conditions: 5 mM K3[Fe(CN)6] as electron acceptor, 50 mM MOPS/KOH pH 7.0, 6% HPCD, 30 °C, anaerobic, enriched enzyme
# [2] = substrate: CC(C)=CCC[C@@H](C)[C@H]1CC[C@H]2[C@@H]3CCC4=CC(=O)C=C[C@]4(C)[C@H]3CC[C@]12C; experiment: UPLC assay of DDO hydroxylation to 26-OH-DDO; type: biochemical, Sterolibacterium denitrificans; conditions: 5 mM K3[Fe(CN)6] as electron acceptor, 50 mM MOPS/KOH pH 7.0, 6% HPCD, 30 °C, anaerobic, enriched enzyme
protein,measurement,setting,value
B1,Km,[1],83 ± 12 µM
same,Km,[2],123 ± 25 µM
